Earlier results in publication PMC12404997.

Biological target: RhoA (Homo sapiens) (UniProt P61586)
Chain of UniProt P61586 (P61586 1-190): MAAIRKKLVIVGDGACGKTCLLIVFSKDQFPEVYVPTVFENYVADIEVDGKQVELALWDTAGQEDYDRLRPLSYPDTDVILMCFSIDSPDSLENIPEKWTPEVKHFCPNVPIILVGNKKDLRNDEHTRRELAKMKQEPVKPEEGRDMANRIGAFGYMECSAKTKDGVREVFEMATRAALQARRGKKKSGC

Kd: 7 µM
Substance: anillin (from UniProt Q9NQW6)
